The results in this text go back to patent US20260167699A1 (Chugai, published 2026).

B1: GpH7-A5/GpH7-B3 variant A330_14T/GpL16-k0 (antibody, human IgG1, kappa)
heavy 1: not shown
heavy 2: not shown
light: DIVMTQSPLSLPVTPGEPASISCQASESLVHSNRNTYLHWYLQKPGQSPQLLIYKVSNRFSGVPDRFSGSGSGTDFTLKISRVEAEDVGVYYCSQNTHVPPTFGQGTKVEIERTVAAPSVFIFPPSDEQLKSGTASVVCLLNNFYPREAKVQWKVDNALQSGNSQESVTEQDSKDSTYSLSSTLTLSKADYEKHKVYACEVTHQGLSSPVTKSFNRGEC
notes: copies: 1 + 1 + 2
B2: GpH7-A5/GpH7-B3 variant G236_04F/GpL16-k0 (antibody, human IgG1, kappa)
heavy 1: not shown
heavy 2: not shown
light: B1 light
notes: copies: 1 + 1 + 2
B3: GpH7-A5/GpH7-B3 variant E333_02A/GpL16-k0 (antibody, human IgG1, kappa)
heavy 1: not shown
heavy 2: not shown
light: B1 light
notes: copies: 1 + 1 + 2
B4: GpH7-A5/GpH7-B3 variant E269_14T/GpL16-k0 (antibody, human IgG1, kappa)
heavy 1: not shown
heavy 2: not shown
light: B1 light
notes: copies: 1 + 1 + 2
B5: GpH7-A5/GpH7-B3 variant G236_15Y/GpL16-k0 (antibody, human IgG1, kappa)
heavy 1: not shown
heavy 2: not shown
light: B1 light
notes: copies: 1 + 1 + 2
B6: GpH7-A5/GpH7-B3 variant D270_08L/GpL16-k0 (antibody, human IgG1, kappa)
heavy 1: not shown
heavy 2: not shown
light: B1 light
notes: copies: 1 + 1 + 2
B7: GpH7-A5/GpH7-B3 variant E333_01G/GpL16-k0 (antibody, human IgG1, kappa)
heavy 1: not shown
heavy 2: not shown
light: B1 light
notes: copies: 1 + 1 + 2
B8: GpH7-A5/GpH7-B3 variant D270_03V/GpL16-k0 (antibody, human IgG1, kappa)
heavy 1: not shown
heavy 2: not shown
light: B1 light
notes: copies: 1 + 1 + 2
B9: GpH7-A5/GpH7-B3 variant E269_01G/GpL16-k0 (antibody, human IgG1, kappa)
heavy 1: not shown
heavy 2: not shown
light: B1 light
notes: copies: 1 + 1 + 2
B10: GpH7-A5/GpH7-B3 variant D270_07I/GpL16-k0 (antibody, human IgG1, kappa)
heavy 1: not shown
heavy 2: not shown
light: B1 light
notes: copies: 1 + 1 + 2
B11: GpH7-A5/GpH7-B3 variant G236_13S/GpL16-k0 (antibody, human IgG1, kappa)
heavy 1: not shown
heavy 2: not shown
light: B1 light
notes: copies: 1 + 1 + 2
B12: GpH7-A5/GpH7-B3 variant E269_19Q/GpL16-k0 (antibody, human IgG1, kappa)
heavy 1: not shown
heavy 2: not shown
light: B1 light
notes: copies: 1 + 1 + 2
B13: GpH7-A5/GpH7-B3 variant E333_16H/GpL16-k0 (antibody, human IgG1, kappa)
heavy 1: not shown
heavy 2: not shown
light: B1 light
notes: copies: 1 + 1 + 2
B14: GpH7-A5/GpH7-B3 variant E333_14T/GpL16-k0 (antibody, human IgG1, kappa)
heavy 1: not shown
heavy 2: not shown
light: B1 light
notes: copies: 1 + 1 + 2
B15: GpH7-A5/GpH7-B3 variant E333_18N/GpL16-k0 (antibody, human IgG1, kappa)
heavy 1: not shown
heavy 2: not shown
light: B1 light
notes: copies: 1 + 1 + 2
B16: GpH7-A5/GpH7-B3 variant A330_18N/GpL16-k0 (antibody, human IgG1, kappa)
heavy 1: not shown
heavy 2: not shown
light: B1 light
notes: copies: 1 + 1 + 2
B17: GpH7-A5/GpH7-B3 variant E333_20W/GpL16-k0 (antibody, human IgG1, kappa)
heavy 1: not shown
heavy 2: not shown
light: B1 light
notes: copies: 1 + 1 + 2
B18: GpH7-A5/GpH7-B3 variant D270_13S/GpL16-k0 (antibody, human IgG1, kappa)
heavy 1: not shown
heavy 2: not shown
light: B1 light
notes: copies: 1 + 1 + 2
B19: GpH7-A5/GpH7-B3 variant E333_19Q/GpL16-k0 (antibody, human IgG1, kappa)
heavy 1: not shown
heavy 2: not shown
light: B1 light
notes: copies: 1 + 1 + 2
B20: GpH7-A5/GpH7-B3 variant A330_20W/GpL16-k0 (antibody, human IgG1, kappa)
heavy 1: not shown
heavy 2: not shown
light: B1 light
notes: copies: 1 + 1 + 2
B21: GpH7-A5/GpH7-B3 variant E269_15Y/GpL16-k0 (antibody, human IgG1, kappa)
heavy 1: not shown
heavy 2: not shown
light: B1 light
notes: copies: 1 + 1 + 2
B22: GpH7-A5/GpH7-B3 variant G236_03V/GpL16-k0 (antibody, human IgG1, kappa)
heavy 1: not shown
heavy 2: not shown
light: B1 light
notes: copies: 1 + 1 + 2
B23: GpH7-A5/GpH7-B3 variant E269_07I/GpL16-k0 (antibody, human IgG1, kappa)
heavy 1: not shown
heavy 2: not shown
light: B1 light
notes: copies: 1 + 1 + 2
B24: GpH7-A5/GpH7-B3 variant E269_06M/GpL16-k0 (antibody, human IgG1, kappa)
heavy 1: not shown
heavy 2: not shown
light: B1 light
notes: copies: 1 + 1 + 2
B25: GpH7-A5/GpH7-B3 variant E333_11K/GpL16-k0 (antibody, human IgG1, kappa)
heavy 1: not shown
heavy 2: not shown
light: B1 light
notes: copies: 1 + 1 + 2
B26: GpH7-A5/GpH7-B3 variant G236_02A/GpL16-k0 (antibody, human IgG1, kappa)
heavy 1: not shown
heavy 2: not shown
light: B1 light
notes: copies: 1 + 1 + 2
B27: GpH7-A5/GpH7-B3 variant G236_20W/GpL16-k0 (antibody, human IgG1, kappa)
heavy 1: not shown
heavy 2: not shown
light: B1 light
notes: copies: 1 + 1 + 2
B28: GpH7-A5/GpH7-B3 variant G237_03V/GpL16-k0 (antibody, human IgG1, kappa)
heavy 1: not shown
heavy 2: not shown
light: B1 light
notes: copies: 1 + 1 + 2
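Further: antibody variants captured on an SPR sensor chip, with FcγRIIIa passed over as analyte in HBS-EP+ buffer at 25 °C.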

In the assay the target is T1, FcγRIIIa (human, UniProt P08637 17-208).
T1 construct: extracellular domain; also called 3a; FcγRIIIa extracellular domain
T1 sequence (P08637 other isoform, or with tags, fused parts or gaps): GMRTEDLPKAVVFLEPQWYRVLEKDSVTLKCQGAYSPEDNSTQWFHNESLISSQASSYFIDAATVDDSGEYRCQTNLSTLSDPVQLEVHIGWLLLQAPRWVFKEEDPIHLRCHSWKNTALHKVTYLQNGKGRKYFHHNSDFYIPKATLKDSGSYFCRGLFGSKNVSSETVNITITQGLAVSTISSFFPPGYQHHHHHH
In words: SPR (Biacore). (In general: SPR reads the build-up and loss of mass on a sensor chip optically.)
B1: the “He/Con 3a” value was 85.8 % of GpH7-A5/GpH7-B3/GpL16-k0.
In the case of B2 it was 81 % of GpH7-A5/GpH7-B3/GpL16-k0; in that of B3, 108 % of GpH7-A5/GpH7-B3/GpL16-k0; in that of B4, 59.7 % of GpH7-A5/GpH7-B3/GpL16-k0.
In the case of B5 it was 112 % of GpH7-A5/GpH7-B3/GpL16-k0.
The value for B6 was 65.1 % of GpH7-A5/GpH7-B3/GpL16-k0.
Regarding B7, the “He/Con 3a” value is 101 % of GpH7-A5/GpH7-B3/GpL16-k0.
In the case of B8 it was 54.6 % of GpH7-A5/GpH7-B3/GpL16-k0; in that of B9, 61.6 % of GpH7-A5/GpH7-B3/GpL16-k0.
B10: the “He/Con 3a” value is 63.1 % of GpH7-A5/GpH7-B3/GpL16-k0.
In the case of B11 it was 60.3 % of GpH7-A5/GpH7-B3/GpL16-k0; in that of B12, 64.3 % of GpH7-A5/GpH7-B3/GpL16-k0; in that of B13, 106 % of GpH7-A5/GpH7-B3/GpL16-k0.
The value for B14 was 100 % of GpH7-A5/GpH7-B3/GpL16-k0.
For the molecule B15, the “He/Con 3a” value was 76.2 % of GpH7-A5/GpH7-B3/GpL16-k0.
The value for B16 was 67.3 % of GpH7-A5/GpH7-B3/GpL16-k0.
The value for B17 was 104 % of GpH7-A5/GpH7-B3/GpL16-k0.
The value for B18 was 51.4 % of GpH7-A5/GpH7-B3/GpL16-k0; that for B19 was 101 % of GpH7-A5/GpH7-B3/GpL16-k0.
Regarding B20, the “He/Con 3a” value was 102 % of GpH7-A5/GpH7-B3/GpL16-k0.
In the case of B21 it was 51.5 % of GpH7-A5/GpH7-B3/GpL16-k0; in that of B22, 53.8 % of GpH7-A5/GpH7-B3/GpL16-k0; in that of B23, 55.3 % of GpH7-A5/GpH7-B3/GpL16-k0.
The value for B24 was 57.9 % of GpH7-A5/GpH7-B3/GpL16-k0; that for B25 was 97.7 % of GpH7-A5/GpH7-B3/GpL16-k0; that for B26 was 77 % of GpH7-A5/GpH7-B3/GpL16-k0.
B27: the “He/Con 3a” value was 126 % of GpH7-A5/GpH7-B3/GpL16-k0.
The value for B28 was 51.3 % of GpH7-A5/GpH7-B3/GpL16-k0.
